Source: patent US20120142585A1 (TEMPLE UNIVERSITY OF THE C0MMONWEALTH SYSTEM OF HIGHER …, published 2012)
Where no end group is shown, it is not given here. [ ]: non-standard residue; d: D form. NMeR = CN[C@@H](CCCNC(=N)N)C(=O)O; aThr = C[C@H](O)[C@H](N)C(=O)O; Nva = CCC[C@H](N)C(=O)O; Ahx = NCCCCCC(=O)O; βAla = NCCC(=O)O

B1: peptide of amino acid sequence Thr-Glu-Nva-Val-Ala-Leu-Ser-Arg-AcpNH2 [SEQ ID NO:4] (peptide)
peptide: TE[Nva]VALSR[Ahx]-NH2
modifications: N-terminus assumed
SMILES: CCC[C@H](NC(=O)[C@H](CCC(=O)O)NC(=O)[C@@H](N)[C@@H](C)O)C(=O)N[C@H](C(=O)N[C@@H](C)C(=O)N[C@@H](CC(C)C)C(=O)N[C@@H](CO)C(=O)N[C@@H](CCCNC(=N)N)C(=O)NCCCCCC(N)=O)C(C)C
B2: peptide of amino acid sequence Thr-Glu-Nva-Nva-Ala-Leu-Ser-Arg-NvaNH2 [SEQ ID NO:47] (peptide)
peptide: TE[Nva][Nva]ALSR[Nva]-NH2
modifications: N-terminus assumed
SMILES: CCC[C@H](NC(=O)[C@H](CCCNC(=N)N)NC(=O)[C@H](CO)NC(=O)[C@H](CC(C)C)NC(=O)[C@H](C)NC(=O)[C@H](CCC)NC(=O)[C@H](CCC)NC(=O)[C@H](CCC(=O)O)NC(=O)[C@@H](N)[C@@H](C)O)C(N)=O
B3: peptide of amino acid sequence alloThr-Glu-Nva-Val-Ala-Leu-Ser-Arg-AcpNH2 [SEQ ID NO:49] (peptide)
peptide: [aThr]E[Nva]VALSR[Ahx]-NH2
modifications: N-terminus assumed
SMILES: CCC[C@H](NC(=O)[C@H](CCC(=O)O)NC(=O)[C@@H](N)[C@H](C)O)C(=O)N[C@H](C(=O)N[C@@H](C)C(=O)N[C@@H](CC(C)C)C(=O)N[C@@H](CO)C(=O)N[C@@H](CCCNC(=N)N)C(=O)NCCCCCC(N)=O)C(C)C
B4: peptide of amino acid sequence Glu-Nva-Val-Ala-Leu-Ser-Arg-AcpNH2 [SEQ ID NO:51] (peptide)
peptide: E[Nva]VALSR[Ahx]-NH2
modifications: N-terminus assumed
SMILES: CCC[C@H](NC(=O)[C@@H](N)CCC(=O)O)C(=O)N[C@H](C(=O)N[C@@H](C)C(=O)N[C@@H](CC(C)C)C(=O)N[C@@H](CO)C(=O)N[C@@H](CCCNC(=N)N)C(=O)NCCCCCC(N)=O)C(C)C

molecular target: T1, leptin receptor (ObR) naturally expressed on MCF-7, LN229 and LN18 cells (human); assay: cell-based or functional assay

For B1, the “IC50, proliferation and XTT metabolic activity assays, LN229 and MCF-7 cells with leptin” value was 2 to 3 nM.

molecular target: T1, leptin receptor (ObR) naturally …; assay: cell-based or functional assay; remark: another data set of the same source

B1 and [dS]E[Nva]VALS[NMeR][βAla]-NH2 [peptide of amino acid sequence (D)-Ser-Glu-Nva-Val-Ala-Leu-Ser-N-MeArg-bAlaNH2 [SEQ ID NO:6]] cannot be ordered by “EC50, proliferation of ObR-positive cancer cells in the absence of leptin” value (from here on “EC50, proliferation”): greater than 1000 nM for the first, greater than 1000 nM for the second.

B2 and B3 cannot be ordered by “EC50, proliferation” value: greater than 1000 nM for the first, greater than 1000 nM for the second.

B4 was tested, and the “EC50, proliferation” value was greater than 500 nM.

Point of comparison: B4, “IC50, proliferation of ObR-positive cancer cells in the presence of leptin (6 nM)” value 50 nM. Against it:
- B1 — 10-fold lower, 5 nM
- [dS]E[Nva]VALS[NMeR][βAla]-NH2 [peptide of amino acid sequence (D)-Ser-Glu-Nva-Val-Ala-Leu-Ser-N-MeArg-bAlaNH2 [SEQ ID NO:6]] — 250-fold lower, 0.2 nM
- B2 — 20-fold higher, 1000 nM
- B3 — 250-fold lower, 0.2 nM

Point of comparison: B1, “IC100, proliferation of ObR-positive cancer cells in the presence of leptin (6 nM)” value 50 nM. Against it:
- [dS]E[Nva]VALS[NMeR][βAla]-NH2 [peptide of amino acid sequence (D)-Ser-Glu-Nva-Val-Ala-Leu-Ser-N-MeArg-bAlaNH2 [SEQ ID NO:6]] — lower, < 1 nM
- B3 — 10-fold lower, 5 nM
- B4 — 2-fold higher, 100 nM
